The record followed here is PMC5697745.

The target in this test is FAM-AIP-I, fluorescein-tagged AIP-I (Staphylococcus aureus (group I)). The test can be described thus: fluorescence polarisation. (In general: In fluorescence polarisation assays a small probe gives low polarisation when free and higher when bound to something large.)

“AgrC-I^R238H, constitutively active full-length AgrC-I mutant, in nanodiscs (receptor)” showed a dissociation constant (Kd) of 0.051 µM.

For orientation: Kd means the concentration at which binding is half-saturated. Higher therefore signals weaker binding.
